Experimental data taken from patent EP4803094A2, “GLP-1/GIP DUAL, GLP-1/GCG DUAL AND GLP-1/GIP/GCG TRIPLE RECEPTOR AGONISTS” (Sun Pharmaceutical Industries Limited, priority 2023, dated 2024).
Marks after values point to notes of the source that are not given here.

Key:
Rats [1] = experiment: Oral Glucose Tolerance Test (OGTT) in rats, single injection (blood glucose AUC, body weight, food consumption); format: in vivo; details: 30 nM/kg s.c., mean (n=4); for Body weight change (%): 24 hr
Rats [2] = experiment: as above; format: in vivo; details: for Food Consumption (g) / Body weight change (%): 30 nM/kg s.c.; for Food Consumption (g): 0-12 hr; for Food Consumption (g) / Body weight change (%) / Blood Glucose AUC(0-120min) Mean: mean (n=4); for Blood Glucose AUC(0-120min) Mean: OGTT 2 g/kg glucose orally, 24 hr post subcutaneous injection of 30 nM/kg; for % Change in Blood glucose AUC(0-120min) vs placebo control: OGTT 24 hr post subcutaneous injection of 30 nM/kg
Procedure: Animals were divided into 6 groups (n=4/group): a placebo control group, Compound 17, (30 nM/kg), Compound 18 (30 nM/kg), Compound 19 (30 nM/kg), Compound 20 (30 nM/kg), and Retatrutide (30 nM/kg). Animals were fasted for 12 hours before initiation of OGTT. After 24 hours of subcutaneous injection of tests or Retatrutide, blood glucose was measured with blood glucometer (time 0 measurement). All the animals were given 2 g/kg of glucose solution orally. Blood glucose was measured at 10, 20, 40, 60, 90, and 120 min following glucose challenge. Body weight and food consumption were recorded at 12 hr, 48 hr and 72 hr.

GIPR = biological target: T1, GIPR (UniProt P48546 22-466, limits assumed); experiment: cell-based or functional assay
T1 sequence (looked up): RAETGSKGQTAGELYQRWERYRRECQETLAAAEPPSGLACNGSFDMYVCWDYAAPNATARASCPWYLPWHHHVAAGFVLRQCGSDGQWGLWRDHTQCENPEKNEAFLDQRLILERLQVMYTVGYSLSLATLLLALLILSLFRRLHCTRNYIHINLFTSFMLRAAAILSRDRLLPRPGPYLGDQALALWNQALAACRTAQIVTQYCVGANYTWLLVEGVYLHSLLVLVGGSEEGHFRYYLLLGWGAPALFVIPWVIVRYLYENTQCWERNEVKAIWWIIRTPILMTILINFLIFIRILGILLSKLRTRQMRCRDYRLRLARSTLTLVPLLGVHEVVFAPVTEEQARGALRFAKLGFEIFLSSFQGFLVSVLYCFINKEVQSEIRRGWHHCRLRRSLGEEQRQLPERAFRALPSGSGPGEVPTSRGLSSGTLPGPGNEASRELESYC

GCGR = GCGR (UniProt P47871 26-477, limits assumed); experiment: cell-based or functional assay
GLP-1R = GLP-1R (UniProt P43220 24-463, limits assumed); experiment: cell-based or functional assay

GCGR, sequence (P47871 26-477 limits assumed): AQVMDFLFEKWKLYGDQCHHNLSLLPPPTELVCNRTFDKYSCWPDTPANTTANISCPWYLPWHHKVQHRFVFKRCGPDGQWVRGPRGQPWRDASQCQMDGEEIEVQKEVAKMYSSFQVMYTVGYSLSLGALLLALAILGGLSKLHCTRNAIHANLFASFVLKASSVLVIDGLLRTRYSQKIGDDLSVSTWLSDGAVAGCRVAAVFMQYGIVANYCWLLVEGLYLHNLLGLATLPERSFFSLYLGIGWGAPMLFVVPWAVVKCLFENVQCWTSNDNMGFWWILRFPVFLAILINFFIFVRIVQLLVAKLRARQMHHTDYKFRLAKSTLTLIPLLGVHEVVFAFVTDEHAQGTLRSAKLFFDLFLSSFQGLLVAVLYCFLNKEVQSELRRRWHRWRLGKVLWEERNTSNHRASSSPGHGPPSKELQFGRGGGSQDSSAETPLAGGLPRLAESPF

For `CCC[C@H](NC(=O)[C@@H](NC(=O)[C@H](CO)NC(=O)[C@H](Cc1ccc(O)cc1)NC(=O)[C@H](CC(=O)O)NC(=O)[C@H](CO)NC(=O)[C@@H](NC(=O)[C@H](Cc1ccccc1)NC(=O)[C@@H](NC(=O)CNC(=O)[C@H](CCC(N)=O)NC(=O)C(C)(C)NC(=O)[C@@H](N)Cc1ccc(O)cc1)[C@@H](C)O)[C@@H](C)O)[C@@H](C)CC)C(=O)N[C@@H](CC(C)C)C(=O)N[C@@H](CC(=O)O)C(=O)N[C@@H](CCCCN)C(=O)N[C@@H](CCCCNC(=O)COCCOCCNC(=O)COCCOCCNC(=O)CC[C@H](NC(=O)CCCCCCCCCCCCCCCCCCC(=O)O)C(=O)O)C(=O)N[C@@H](C)C(=O)N[C@@H](CCC(N)=O)C(=O)NC(C)(C)C(=O)N[C@@H](C)C(=O)N[C@@H](Cc1ccccc1)C(=O)N[C@H](C(=O)N[C@@H](CCC(=O)O)C(=O)N[C@@H](Cc1ccc(O)cc1)C(=O)N[C@@H](CC(C)C)C(=O)N[C@@H](CC(C)C)C(=O)N[C@@H](CCC(=O)O)C(=O)NCC(=O)NCC(=O)N1CCC[C@H]1C(=O)N[C@@H](CO)C(=O)N[C@@H](CO)C(=O)NCC(=O)N[C@@H](C)C(=O)N1CCC[C@H]1C(=O)N1CCC[C@H]1C(=O)N1CCC[C@H]1C(=O)N[C@@H](CO)C(N)=O)[C@@H](C)CC` [Compound 18], the “Food Consumption (g)” value (Rats [1]; 24-48 hr) was 5.8*** g, the “Food Consumption (g)” value (Rats [1]; 24-72 hr) was 16.8*** g and the “Body weight change (%)” value (Rats [1]) was -6.5*** %. The “Food Consumption (g)” value (Rats [2]) was 3.0*** g, the “Body weight change (%)” value (Rats [2]; 48 hr) was -4.6*** % and the “Body weight change (%)” value (Rats [2]; 72 hr) was -2.6*** %. For the same molecule, the “Blood Glucose AUC(0-120min) Mean” value (Rats [2]) was 4176.3*** and the “% Change in Blood glucose AUC(0-120min) vs placebo control” value (Rats [2]) was -56.82%.

For `CCC[C@H](NC(=O)[C@@H](NC(=O)[C@H](CO)NC(=O)[C@H](Cc1ccc(O)cc1)NC(=O)[C@H](CC(=O)O)NC(=O)[C@H](CO)NC(=O)[C@@H](NC(=O)[C@H](Cc1ccccc1)NC(=O)[C@@H](NC(=O)CNC(=O)[C@H](CCC(N)=O)NC(=O)C(C)(C)NC(=O)[C@@H](N)Cc1ccc(O)cc1)[C@@H](C)O)[C@@H](C)O)[C@@H](C)CC)C(=O)N[C@@H](CC(C)C)C(=O)N[C@@H](CC(=O)O)C(=O)N[C@@H](CCCCN)C(=O)N[C@@H](CCCCNC(=O)COCCOCCNC(=O)C(C)(C)NC(=O)CC[C@H](NC(=O)CCCCCCCCCCCCCCCCCCC(=O)O)C(=O)O)C(=O)N[C@@H](C)C(=O)N[C@@H](CCC(N)=O)C(=O)NC(C)(C)C(=O)N[C@@H](C)C(=O)N[C@@H](Cc1ccccc1)C(=O)N[C@H](C(=O)N[C@@H](CCC(=O)O)C(=O)N[C@@H](Cc1ccc(O)cc1)C(=O)N[C@@H](CC(C)C)C(=O)N[C@@H](CC(C)C)C(=O)N[C@@H](CCC(=O)O)C(=O)NCC(=O)NCC(=O)N1CCC[C@H]1C(=O)N[C@@H](CO)C(=O)N[C@@H](CO)C(=O)NCC(=O)N[C@@H](C)C(=O)N1CCC[C@H]1C(=O)N1CCC[C@H]1C(=O)N1CCC[C@H]1C(=O)N[C@@H](CO)C(N)=O)[C@@H](C)CC` [Compound 17], the “Food Consumption (g)” value (Rats [1]; 24-48 hr) was 15.8*** g, the “Food Consumption (g)” value (Rats [1]; 24-72 hr) was 31.3*** g and the “Body weight change (%)” value (Rats [1]) was -6.8*** %. The “Food Consumption (g)” value (Rats [2]) was 1.4*** g, the “Body weight change (%)” value (Rats [2]; 48 hr) was -5.0*** % and the “Body weight change (%)” value (Rats [2]; 72 hr) was -3.3*** %. For the same molecule, the “Blood Glucose AUC(0-120min) Mean” value (Rats [2]) was 4771.3*** and the “% Change in Blood glucose AUC(0-120min) vs placebo control” value (Rats [2]) was -50.67%.

B1: Compound 12 (peptide)
peptide: YXQGTFTSDYSIXLDKXAQXAFIEYLLEGGPSSGAPPPS
modifications: Aib at 2; αMethyl-Leu at 13; Lys 17 ε-amino acylated with Moiety A; Aib at 20; C-terminal amide (Rink amide resin)
In the case of B1, the “EC50 value, cellular cAMP assay (Hit Hunter cAMP)” value (shortened to “EC50 value, cellular cAMP assay”) (GIPR) is reported as 12 nM, the “EC50 value, cellular cAMP assay” value (GCGR) is reported as 6.99 nM and the “EC50 value, cellular cAMP assay” value (GLP-1R) is reported as 12 nM.

B2: Compound 17 (peptide)
peptide: B1 peptide
modifications: Aib at 2; norvaline at 13; Lys 17 ε-amino acylated with Moiety B; Aib at 20; C-terminal amide
For B2, the “EC50 value, cellular cAMP assay” value (GIPR) was 0.0115 nM, the “EC50 value, cellular cAMP assay” value (GCGR) was 0.0133 nM and the “EC50 value, cellular cAMP assay” value (GLP-1R) was 0.0087 nM.

B3: Compound 13 (peptide)
peptide: B1 peptide
modifications: Aib at 2; αMethyl-Leu at 13; Lys 17 ε-amino acylated with Moiety B; Aib at 20; C-terminal amide
With B3 the “EC50 value, cellular cAMP assay” value (GIPR) was over 1.5 nM, the “EC50 value, cellular cAMP assay” value (GCGR) was over 1.8 nM and the “EC50 value, cellular cAMP assay” value (GLP-1R) was over 2.4 nM.

B4: Compound 19 (peptide)
peptide: B1 peptide
modifications: Aib at 2; αMethyl-Leu at 13; Lys 17 ε-amino acylated with Moiety C; Aib at 20; C-terminal amide
For B4, the “EC50 value, cellular cAMP assay” value (GIPR) was 0.0138 nM, the “EC50 value, cellular cAMP assay” value (GCGR) was 0.109 nM and the “EC50 value, cellular cAMP assay” value (GLP-1R) was 0.0116 nM.

B5: Compound 14 (peptide)
peptide: B1 peptide
modifications: Aib at 2; norleucine at 13; Lys 17 ε-amino acylated with Moiety B; Aib at 20; C-terminal amide
In the case of B5, the “EC50 value, cellular cAMP assay” value (GIPR) is reported as 24 nM, the “EC50 value, cellular cAMP assay” value (GCGR) is reported as 20.9 nM and the “EC50 value, cellular cAMP assay” value (GLP-1R) is reported as 8.54 nM.

B6: Compound 18 (peptide)
peptide: B1 peptide
modifications: not fully specified; Aib at 2; norvaline at 13; Lys 17 ε-amino acylated with Moiety G; Aib at 20; C-terminal amide
In the case of B6, the “EC50 value, cellular cAMP assay” value (GIPR) is reported as 0.0227 nM, the “EC50 value, cellular cAMP assay” value (GCGR) is reported as 0.193 nM and the “EC50 value, cellular cAMP assay” value (GLP-1R) is reported as 0.0173 nM.

B7: Compound 20 (peptide)
peptide: B1 peptide
modifications: Aib at 2; αMethyl-Leu at 13; Lys 17 ε-amino acylated with Moiety D; Aib at 20; C-terminal amide
B7 was tested, and the “EC50 value, cellular cAMP assay” value (GIPR) was 0.0181 nM, the “EC50 value, cellular cAMP assay” value (GCGR) was 0.14 nM and the “EC50 value, cellular cAMP assay” value (GLP-1R) was 0.0144 nM.
